In this assay the target is zebrafish VPS26 (zebrafish, UniProt Q6TNP8 1-327). The experiment in a line: cryo-EM structure; cryo-electron tomography with subtomogram averaging of coats reconstituted on PI(3)P- and DGS-Ni-NTA-containing liposomes: 2.5 uM core trimer, 3.5x molar excess of adaptor (SNX3 or Grd19) and the corresponding His-tagged cargo peptide (Wls or Kex2), liposomes 0.16 mg/ml, 4 hours at 22°C in buffer A (20 mM Hepes-KOH pH 7.5, 200 mM NaCl, 1 mM TCEP). The note with it: both partners purified.

B1: His6Wls (peptide, UniProt Q6DID7 493-541, looked up)
chain: APSHKNYGEDQSNGDLGVHSGEELQLTTTITHVDGPTEIYKLTRKEAQE
notes: Wntless (Wls), residues 493 to 541 (C-terminal domain), UniProt Q6DID7; Cloned in pRSFDuet-1; attached to the liposome membrane (liposomes contain DGS-Ni-NTA); also called Wntless cargo peptide; Wls cargo tail peptide; source: E. coli BL21(DE3), purified (Ni-NTA, Superdex Peptide 10/300)
Turning to B1, the binding result is “binds”.
